Experimental data from patent US20200002421A1, “ANTI-B7-H3 ANTIBODIES AND ANTIBODY DRUG CONJUGATES” (AbbVie Inc., priority 2016, published 2020).
Positions count from the first letter of the chain named. Each block holds one molecule with its values, some of them ahead of it.

Tests used:
[1] = target: T1, huB7-H3 (Homo sapiens, UniProt Q5ZPR3); experiment: Biacore T200 SPR binding kinetics, mAb capture; settings: Table 3
T1 construct: His tag (6xHis) (C)
T1 sequence (Q5ZPR3 with tags, fused parts or gaps): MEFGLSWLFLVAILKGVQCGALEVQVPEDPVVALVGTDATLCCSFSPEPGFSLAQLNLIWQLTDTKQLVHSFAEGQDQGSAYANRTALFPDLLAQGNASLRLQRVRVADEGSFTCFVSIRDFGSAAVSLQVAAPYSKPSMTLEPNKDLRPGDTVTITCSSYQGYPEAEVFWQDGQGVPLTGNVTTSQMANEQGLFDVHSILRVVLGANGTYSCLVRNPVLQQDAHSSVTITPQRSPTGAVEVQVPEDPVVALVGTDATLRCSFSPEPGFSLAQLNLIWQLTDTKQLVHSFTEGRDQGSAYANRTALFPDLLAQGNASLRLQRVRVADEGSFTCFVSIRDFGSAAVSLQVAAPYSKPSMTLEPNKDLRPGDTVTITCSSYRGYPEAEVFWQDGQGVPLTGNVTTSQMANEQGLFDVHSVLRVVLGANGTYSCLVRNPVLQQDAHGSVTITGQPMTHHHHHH
Procedure: The binding affinity of the purified anti-B7-H3 monoclonal antibodies was determined by surface […]. […] The binding kinetics were derived from SPR measurements using a Biacore T200 instrument and a mAb capture approach (as described in the materials and methods below).
Biacore T200 SPR instruments were used to measure the binding kinetics of human B7-H3 (4Ig-B7-H3 variant) (analyte) binding to various mAbs (ligands). The assay format was Fc-based capture via immobilized anti-mouse (Fc) (Pierce 31170) or immobilized anti-human (Fc) (Pierce 31125). A standard amine coupling protocol was employed to immobilize the capture reagents via primary amines to the carboxy-methyl (CM) dextran surface of CM5 sensorchips (Biacore); capture antibodies were coupled to a level of approximately 5000 RU. For binding kinetic measurements the assay buffer was HBS-EP+(Biacore): 10 mM Hepes, pH7.4, 150 mM NaCl, 3 mM EDTA, 0.05% polysorbate 20. During the assay, all measurements were referenced against the capture surface alone. Each assay cycle consisted of the following steps: 1) Capture of ligand to approximately 50 RU; 2) Analyte injection over both reference and test surface, 240 μL at 80 μL/min, after which the dissociation was monitored for 900 seconds at 80 μL/min; 3) Regeneration of capture surface with low pH glycine. For kinetic determinations analyte injections were 3-point, 9-fold dilution series of 900 nM, 100 nM and 11.11 nM, buffer only injections were included for secondary referencing. Data were processed and fit to a 1:1 binding model using Biacore T200 Evaluation Software to determine the binding kinetic rate constants, ka (on-rate) and kd (off-rate), and the equilibrium dissociation constant (affinity, KD).

[2] = target: T2, human B7-H3 (Homo sapiens, UniProt Q5ZPR3); experiment: Epitope grouping by pair-wise Biacore SPR binding; settings: simultaneous binding assay, FIG. 1
T2 construct: His tag (6xHis) (C)
T2 sequence (Q5ZPR3 with tags, fused parts or gaps): T1 sequence (Q5ZPR3 with tags, fused parts or gaps)
Text: Pair-wise binding assays performed on Biacore T200 SPR instruments were used to determine the relative epitope grouping for the murine anti-B7-H3 mAbs as described in the methods below. […] Epitope groups are represented as individual ovals, some of which overlap with each other. Antibodies in different epitope groups can bind to B7-H3 simultaneously and likely bind to different epitopes while antibodies within a given epitope group cannot bind to B7-H3 simultaneously and likely bind to overlapping epitopes. The grouping information was derived from a simultaneous binding assay as described in materials and methods. Ab3, Ab4, Ab5, Abl 1, Ab12, and Ab8 groupings were ambiguous
Pair-wise binding assays performed on Biacore T200 SPR instruments were used to determine the relative epitope grouping for a series of anti-B7-H3 mAbs. The assay format was Fc-based capture via immobilized anti-mouse (Fc) (Pierce 31170) or immobilized anti-human (Fc) (Pierce 31125). A standard amine coupling protocol was employed to immobilize the capture reagents via primary amines to the carboxy-methyl (CM) dextran surface of CM5 sensorchips (Biacore); capture antibodies were coupled to a level of approximately 2000 RU. Epitope grouping measurements were done at 12° C. (low temperature allows for grouping information on fast off-rate mAbs), the assay buffer was HBS-EP+(Biacore): 10 mM Hepes, pH7.4, 150 mM NaCl, 3 mM EDTA, 0.05% polysorbate 20. Each assay cycle consisted of the following steps in a four flowcell system: 1) separate test mAbs were captured in flowcells 2, 3 & 4 (flowcell 1 was reference, no test mAb); 2) all 4 flowcells were then blocked by injection with isotype control mAb or isotype mAb cocktail at 50 μg/mL; 3) all 4 flowcells were then injected with antigen or buffer only (buffer only is for double referencing, done for each mAb pair individually); 4) all 4 flowcells were then injected with 2nd test mAb at 10 μg/mL; 5) all 4 flowcells were then regenerated with glycine, pH1.5. The assay was done for each test mAb pair in reciprocal orientations. Simultaneous binding was evaluated examining the ratio of the 2nd test mAb response to the Ag response (RUmAb2/RUAg); if this ratio was equal to or greater than 0.2 the interaction was scored as a simultaneous binder. From this pair-wise binding assay data a “venn” style diagram was constructed manually to depict relative epitope groupings.

- huB7-H3 ka(1/Ms) [1]: 210000 M⁻¹ s⁻¹
B1: Ab18: mouse hybridoma anti-B7-H3 monoclonal antibody, mouse IgG1/k (antibody, V domains shown)
VH: QVQLQQSAAELARPGASVKMSCKASGYSFTSYTIHWVKQRPGQGLEWIGYINPNSRNTDYNQKFKDETTLTADRSSSTAYMQLISLTSEDSAVYYCARYSGSTPYWYFDVWGAGTTVTVSS
VL: QIVLTQSPAILSASPGEKVTMTCRASSSVSYMNWYQQKPGSSPKPWIYATSNLASGVPARFSVSVSGTSHSLTISRVEAEDAATYYCQQWSSNPLTFGAGTKLELK

- huB7-H3 ka(1/Ms) [1]: 540000 M⁻¹ s⁻¹
B2: Ab17: mouse hybridoma anti-B7-H3 monoclonal antibody, mouse IgG2b/k (antibody, V domains shown)
VH: EVKLVESGGGLVQPGGSLKLSCAASGFTFSSYIMSWVRQTPEKRLEWVASIVSSNITYYPDSMKGRFTISRDNARNILYLQMSSLKSEDTAMYYCARSGTRAWFAYWGQGTLVTVSA
VL: DIVLTQSPASLAVSLGQRATISCRASKSVSTSAYSYMHWYQQKPGQPPKLLIYLASNLESGVPARFSGSGSGTDFTLNIHPVEEEDAATYYCQHSRELPYTFGGGTKLEIK

- huB7-H3 ka(1/Ms) [1]: 110000 M⁻¹ s⁻¹
B3: Ab14: mouse hybridoma anti-B7-H3 monoclonal antibody, mouse IgG1/k (antibody, V domains shown)
VH: EVKLVESGGGLVKPGGSLKLSCAASGFTFSSYGMSWVRQTPEKRLEWVATISGGGTNTYYPDSVEGRFTISRDNAKNFLYLQMSSLRSEDTALYYCARHYGSQTMDYWGQGTSVTVSS
VL: DIQMTQSPASLSASVGETVTITCRTSGNIHNYLTWYQQKQGKSPQLLVYNAKTLADGVPSRFSGSGSGTQFSLKINSLQPEDFGSYYCQHFWSIMWTFGGGTKLEIK

- huB7-H3 ka(1/Ms) [1]: 330000 M⁻¹ s⁻¹
B6: Ab13: mouse hybridoma anti-B7-H3 monoclonal antibody, mouse IgG1/k (antibody, V domains shown)
VH: DVQLQESGPDLVKPSQSLSLTCTVTGYSITSGYSWHWIRQFPGNKLEWMGYIHSSGSTNYNPSLKSRISINRDTSKNQFFLQLNSVTTEDTATYYCAGYDDYFEYWGQGTTLTVSS
VL: DIVMTQSQKFMSTSVGDRVSVTCKASQNVGFNVAWYQQKPGQSPKALIYSASYRYSGVPDRFTGSGSGTDFTLTISNVQSEDLAEYFCQQYNSYPFTFGSGTKLEIK

- huB7-H3 ka(1/Ms) [1]: 41000 M⁻¹ s⁻¹
B8: Ab10: mouse hybridoma anti-B7-H3 monoclonal antibody, mouse IgG2b/k (antibody, V domains shown)
VH: DVQLQESGPGLVKPSQSLSLTCTVTGYSITSDYAWNWIRQFPGNRLEWMGHINYSGITNYNPSLKSRISITRDTSKNQFFLQLYSVTTEDTATYFCARRSLFYYYGSSLYAMDYWGQGTSVTVSS
VL: DVVMTQSPFSLPVSLGDQASISCRSSQSLVHSNGNTYLHWYLQKPGQSPKLLIYKVSNRFSGVPDRFSGSGSGTDFTLKISRVEAEDLGVYFCSQSTHVPWTFGGGTKLEIK

- huB7-H3 ka(1/Ms) [1]: 140000 M⁻¹ s⁻¹
B10: Ab16: mouse hybridoma anti-B7-H3 monoclonal antibody, mouse IgG1/k (antibody, V domains shown)
VH: EVKLLESGGGLVQPGGSLKLSCAASGFDFSRYWMSWVRQAPGKGLEWIGEINPDSSTINYTPSLKDKFIISRDNAKNTLYLQMSKVRSEDTALYYCARPGFGNYIYAMDYWGQGTSVTVSS
VL: DIQMTQTTSSLSASLGDRVTINCRASQDISNFLNWYQQKPDGTVKLLIYYTSRLYLGVPSRFSGSGSGTDYSLTISNLEQEDIATYFCQQGNTLPPTFGGGTKLEIK

Continued, molecule first:

B4: Ab5: mouse hybridoma anti-B7-H3 monoclonal antibody, mouse IgG1/k (antibody, V domains shown)
VH: QVQLQQPGDELVKPGASVKLSCKTSGYTFTTDWMHWVKQRPGQGLEWIGMIHPNSGTTNYNEKFKSKAALTVDKSSSTACMQLSSLTSEDSAVYYCARSYWKWYFDVWGTGTTVTVSS
VL: QIVLTQSPAIMSASLGEEITLTCSASSSVSYMHWYQQKSGTSPKLLIYSTSNLASGVPSRFSGSGSGTFYSLTISSVEAEDSADYYCHQWTSYMYTFGGGTKLEIK
- huB7-H3 ka(1/Ms) [1]: 1.3e+06 M⁻¹ s⁻¹
- epitope grouping [2]: ambiguous

B5: Ab4: mouse hybridoma anti-B7-H3 monoclonal antibody, mouse IgG2b/k (antibody, V domains shown)
VH: QVQLQQPGAELVKPGASVKLSCKASGYSFTSYWMHWVKQRPGQGLEWIGMIHPNSGSNNYNEKFKSKATLTVDKSSNTAYMQLSSLTSEDSAVYYCARRLGLHFDYWGQGTTLTVSS
VL: DIVMTQSQKFMSTPVGDRVSITCKASQNVGTAVAWYQQKPGQSPKLLIYSASNRYTGVPDRFTGSGSGTDFTLTISNMQSEDLADYFCQQYSSYPYTFGGGTKLEIK
- huB7-H3 ka(1/Ms) [1]: 690000 M⁻¹ s⁻¹
- epitope grouping [2]: ambiguous

B7: Ab3: mouse hybridoma anti-B7-H3 monoclonal antibody, mouse IgG1/k (antibody, V domains shown)
VH: QVQLQQPGAELVKPGASVKLSCKASGYTFSSYWMHWVKQRPGQGLEWIGLIHPDSGSTNYNEMFKNKATLTVDRSSSTAYVQLSSLTSEDSAVYFCAGGGRLYFDYWGQGTTLTVSS
VL: B8 VL with S7T, F9L, N35D, H39R, S81T, W101Y
- huB7-H3 ka(1/Ms) [1]: 520000 M⁻¹ s⁻¹
- epitope grouping [2]: ambiguous

B9: Ab2: mouse hybridoma anti-B7-H3 monoclonal antibody, mouse IgG1/k (antibody, V domains shown)
VH: QVQLQQPGAELVKPGASVKLSCKASGYTFTSYWMHWVKQRPGQGLEWIGMIHPDSGTTNYNEKFRSKATLTVDKSSSTAYMQLSSLTSEDSAVYYCAVYYGSTYWYFDVWGTGTTVTVSS
VL: B8 VL with S7T, F9L, S20Y, S32I, L42R, V99F, W101F, G105S
- huB7-H3 ka(1/Ms) [1]: 120000 M⁻¹ s⁻¹

B11: Ab6: mouse hybridoma anti-B7-H3 monoclonal antibody, mouse IgG1/k (antibody, V domains shown)
VH: QVQLQQSGAELMKPGASVKISCKATGYTFSRYWIEWVKQRPGHGLEWIGEILPGSGSTNYNEKFKGKATFTADTSSNTAYMQVSSLTSEDSAVHYCARRGYGYVPYALDYWGQGTSVTVSS
VL: B10 VL with D1E, N22S, F32S, K45N, L56S, P96Y
- huB7-H3 ka(1/Ms) [1]: 12000 M⁻¹ s⁻¹
